A short description of the data set: total protein half-life in vivo (active degradation + dilution); higher = more stable protein.
[1] abbreviates: E. coli NCM3722 delta-clpP delta-lon delta-hslV, growth: N-lim chemostat, doubling time 6 h.
Where [2] appears, read: E. coli NCM3722 delta-clpP, growth: N-lim chemostat, doubling time 6 h.
Where [3] appears, read: E. coli NCM3722 delta-hslV, growth: N-lim chemostat, doubling time 6 h.
[4] abbreviates: E. coli NCM3722 delta-lon, growth: N-lim chemostat, doubling time 6 h.
Setting [5] is: E. coli NCM3722 delta-smpB, growth: N-lim chemostat, doubling time 6 h.
The mark [6] stands for this setting: wild type E. coli NCM3722, growth: C-lim chemostat, doubling time 3 h.
Setting [7] is: wild type E. coli NCM3722, growth: C-lim chemostat, doubling time 6 h.
[8] abbreviates: wild type E. coli NCM3722, growth: C-lim chemostat, doubling time 12 h.
[9] abbreviates: wild type E. coli NCM3722, growth: N-lim chemostat, doubling time 6 h.
The mark [10] stands for this setting: wild type E. coli NCM3722, growth: N-lim chemostat, doubling time 12 h.
[11] abbreviates: wild type E. coli NCM3722, growth: P-lim chemostat, doubling time 6 h.
The mark [12] stands for this setting: wild type E. coli NCM3722, growth: P-lim chemostat, doubling time 12 h.

± gives the standard deviation of the averaged measurements.

Consider “MAQEIELKFIVNHSAVEALRDHLNTLGGEHHDPVQLLNIYYETPDNWLRGHDMGLRIRGENGRYEMTMKVAGRVTGGLHQRPEYNVALSEPTLDLAQLPTEVWPNGELPADLASRVQPLFSTDFYREKWLVAVDGSQIEIALDQGEVKAGEFAEPICELELELLSGDTRAVLKLANQLVSQTGLRQGSLSKAARGYHLAQGNPAREIKPTTILHVAAKADVEQGLEAALELALAQWQYHEELWVRGNDAAKEQVLAAISLVRHTLMLFGGIVPRKASTHLRDLLTQCEATIASAVSAVTAVYSTETAMAKLALTEWLVSKAWQPFLDAKAQGKISDSFKRFADIHLSRHAAELKSVFCQPLGDRYRDQLPRLTRDIDSILLLAGYYDPVVAQAWLENWQGLHHAIATGQRIEIEHFRNEANNQEPFWLHSGKR”, for which the “total protein half-life in vivo” value reads like this: under setting [1], 5.73 ± 0.11 h; under setting [2], 5.48 ± 0.56 h; under setting [3], 5.22 ± 0.088 h; under setting [4], 4.91 ± 1.1 h; under setting [5], 4.78 ± 0.12 h; under setting [6], 3.09 ± 0.13 h. Also, the “total protein half-life in vivo” value reads like this: under setting [7], 6.25 ± 0.19 h; under setting [8], 10.7 ± 1.1 h; under setting [9], 5.37 ± 0.26 h; under setting [10], 8.65 ± 0.74 h; under setting [11], 6.02 ± 0.58 h; under setting [12], 11.6 ± 1.1 h.

With “MRIIDNLEQFRQIYASGKKWQRCVEAIENIDNIQPGVAHSIGDSLTYRVETDSATDALFTGHRRYFEVHYYLQGQQKIEYAPKETLQVVEYYRDETDREYLKGCGETVEVHEGQIVICDIHEAYRFICNNAVKKVVLKVTIEDGYFHNK [P0AC73]”, the “total protein half-life in vivo” value runs as follows: under setting [6], 2.92 ± 0.37 h; under setting [7], 6.04 ± 0.63 h; under setting [8], 9.85 h.

“MDKIEVRGARTHNLKNINLVIPRDKLIVVTGLSGSGKSSLAFDTLYAEGQRRYVESLSAYARQFLSLMEKPDVDHIEGLSPAISIEQKSTSHNPRSTVGTITEIHDYLRLLFARVGEPRCPDHDVPLAAQTVSQMVDNVLSQPEGKRLMLLAPIIKERKGEHTKTLENLASQGYIRARIDGEVCDLSDPPKLELQKKHTIEVVVDRFKVRDDLTQRLAESFETALELSGGTAVVADMDDPKAEELLFSANFACPICGYSMRELEPRLFSFNNPAGACPTCDGLGVQQYFDPDRVIQNPELSLAGGAIRGWDRRNFYYFQMLKSLADHYKFDVEAPWGSLSANVHKVVLYGSGKENIEFKYMNDRGDTSIRRHPFEGVLHNMERRYKETESSAVREELAKFISNRPCASCEGTRLRREARHVYVENTPLPAISDMSIGHAMEFFNNLKLAGQRAKIAEKILKEIGDRLKFLVNVGLNYLTLSRSAETLSGGEAQRIRLASQIGAGLVGVMYVLDEPSIGLHQRDNERLLGTLIHLRDLGNTVIVVEHDEDAIRAADHVIDIGPGAGVHGGEVVAEGPLEAIMAVPESLTGQYMSGKRKIEVPKKRVPANPEKVLKLTGARGNNLKDVTLTLPVGLFTCITGVSGSGKSTLINDTLFPIAQRQLNGATIAEPAPYRDIQGLEHFDKVIDIDQSPIGRTPRSNPATYTGVFTPVRELFAGVPESRARGYTPGRFSFNVRGGRCEACQGDGVIKVEMHFLPDIYVPCDQCKGKRYNRETLEIKYKGKTIHEVLDMTIEEAREFFDAVPALARKLQTLMDVGLTYIRLGQSATTLSGGEAQRVKLARELSKRGTGQTLYILDEPTTGLHFADIQQLLDVLHKLRDQGNTIVVIEHNLDVIKTADWIVDLGPEGGSGGGEILVSGTPETVAECEASHTARFLKPML [P0A698]”: the “total protein half-life in vivo” value runs as follows: under setting [1], 6.85 ± 0.08 h; under setting [2], 6.52 ± 0.27 h; under setting [3], 6.32 ± 0.14 h; under setting [4], 6.4 ± 0.084 h; under setting [5], 5.66 ± 0.51 h; under setting [6], 3.21 ± 0.095 h. The “total protein half-life in vivo” value is 6.19 ± 0.7 h under setting [7]; 12.1 ± 0.6 h under setting [8]; 6.24 ± 0.3 h under setting [9]; 12.7 ± 0.13 h under setting [10]; 6.273 ± 0.06 h under setting [11]; 13.6 ± 0.84 h under setting [12].

In the case of “MNQQDIEQVVKAVLLKMQSSDTPSAAVHEMGVFASLDDAVAAAKVAQQGLKSVAMRQLAIAAIREAGEKHARDLAELAVSETGMGRVEDKFAKNVAQARGTPGVECLSPQVLTGDNGLTLIENAPWGVVASVTPSTNPAATVINNAISLIAAGNSVIFAPHPAAKKVSQRAITLLNQAIVAAGGPENLLVTVANPDIETAQRLFKFPGIGLLVVTGGEAVVEAARKHTNKRLIAAGAGNPPVVVDETADLARAAQSIVKGASFDNNIICADEKVLIVVDSVADELMRLMEGQHAVKLTAEQAQQLQPVLLKNIDERGKGTVSRDWVGRDAGKIAAAIGLKVPQETRLLFVETTAEHPFAVTELMMPVLPVVRVANVADAIALAVKLEGGCHHTAAMHSRNIENMNQMANAIDTSIFVKNGPCIAGLGLGGEGWTTMTITTPTGEGVTSARTFVRLRRCVLVDAFRIV”, the “total protein half-life in vivo” value under setting [1] stood at 5.64 ± 1.3 h.

Turning to “MPVITLPDGSQRHYDHAVSPMDVALDIGPGLAKACIAGRVNGELVDACDLIENDAQLSIITAKDEEGLEIIRHSCAHLLGHAIKQLWPHTKMAIGPVIDNGFYYDVDLDRTLTQEDVEALEKRMHELAEKNYDVIKKKVSWHEARETFANRGESYKVSILDENIAHDDKPGLYFHEEYVDMCRGPHVPNMRFCHHFKLMKTAGAYWRGDSNNKMLQRIYGTAWADKKALNAYLQRLEEAAKRDHRKIGKQLDLYHMQEEAPGMVFWHNDGWTIFRELEVFVRSKLKEYQYQEVKGPFMMDRVLWEKTGHWDNYKDAMFTTSSENREYCIKPMNCPGHVQIFNQGLKSYRDLPLRMAEFGSCHRNEPSGSLHGLMRVRGFTQDDAHIFCTEEQIRDEVNGCIRLVYDMYSTFGFEKIVVKLSTRPEKRIGSDEMWDRAEADLAVALEENNIPFEYQLGEGAFYGPKIEFTLYDCLDRAWQCGTVQLDFSLPSRLSASYVGEDNERKVPVMIHRAILGSMERFIGILTEEFAGFFPTWLAPVQVVIMNITDSQSEYVNELTQKLSNAGIRVKADLRNEKIGFKIREHTLRRVPYMLVCGDKEVESGKVAVRTRRGKDLGSMDVNEVIEKLQQEIRSRSLKQLEE [P0A8M3]”, the “total protein half-life in vivo” value is 5.73 ± 0.81 h under setting [1]; 5.78 ± 1.1 h under setting [2]; 5.411 ± 0.034 h under setting [3]; 6.36 ± 0.29 h under setting [4]; 5.34 ± 0.06 h under setting [5]; 3.18 ± 0.052 h under setting [6]. Besides, the “total protein half-life in vivo” value under setting [7] was 6.43 ± 0.58 h; the “total protein half-life in vivo” value under setting [8] worked out at 11.3 ± 0.88 h; the “total protein half-life in vivo” value under setting [9] was 5.35 ± 0.11 h; the “total protein half-life in vivo” value under setting [10] worked out at 9.648 ± 0.077 h; the “total protein half-life in vivo” value under setting [11] amounted to 5.99 ± 0.14 h; the “total protein half-life in vivo” value under setting [12] was determined as 13.3 ± 0.97 h.

For “MAEAQNDPLLPGYSFNAHLVAGLTPIEANGYLDFFIDRPLGMKGYILNLTIRGQGVVKNQGREFVCRPGDILLFPPGEIHHYGRHPEAREWYHQWVYFRPRAYWHEWLNWPSIFANTGFFRPDEAHQPHFSDLFGQIINAGQGEGRYSELLAINLLEQLLLRRMEAINESLHPPMDNRVREACQYISDHLADSNFDIASVAQHVCLSPSRLSHLFRQQLGISVLSWREDQRISQAKLLLSTTRMPIATVGRNVGFDDQLYFSRVFKKCTGASPSEFRAGCEEKVNDVAVKLS [P0A9E0]”, the “total protein half-life in vivo” value was determined as 5.38 ± 0.2 h under setting [1]; 1.95 h under setting [2]; 1.21 ± 0.4 h under setting [3]; 1.26 ± 0.079 h under setting [4]; 0.763 ± 0.18 h under setting [5]; 0.747 ± 0.18 h under setting [6]. In addition, the “total protein half-life in vivo” value is, setting by setting: under setting [7], 1.42 ± 0.059 h; under setting [8], 1.81 ± 0.044 h; under setting [9], 1.08 ± 0.057 h; under setting [10], 1.34 ± 0.25 h; under setting [12], 1.12 h.

For the sequence “MMYHIPGVLSPQDVARFREQLEQAEWVDGRVTTGAQGAQVKNNQQVDTRSTLYAALQNEVLNAVNQHALFFAAALPRTLSTPLFNRYQNNETYGFHVDGAVRSHPQNGWMRTDLSATLFLSDPQSYDGGELVVNDTFGQHRVKLPAGDLVLYPSSSLHCVTPVTRGVRVASFMWIQSMIRDDKKRAMLFELDNNIQSLKSRYGESEEILSLLNLYHNLLREWSEI”, the “total protein half-life in vivo” value by setting is: under setting [1], 4.14 ± 0.34 h; under setting [2], 2.79 h; under setting [3], 2.86 h; under setting [4], 3.12 ± 0.055 h; under setting [5], 2.31 ± 0.3 h; under setting [6], 3 ± 0.17 h. Also, the “total protein half-life in vivo” value came out at 4.856 ± 0.037 h under setting [7]; 6.39 h under setting [8]; 4.16 h under setting [10]; 5.85 ± 0.63 h under setting [11]; 11.4 ± 1.4 h under setting [12].

Turning to “MVISIRRSRHEEGEELVAIWCRSVDATHDFLSAEYRTELEDLVRSFLPEAPLWVAVNERDQPVGFMLLSGQHMDALFIDPDVRGCGVGRVLVEHALSMAPELTTNVNEQNEQAVGFYKKVGFKVTGRSEVDDLGKPYPLLNLAYVGA”, under setting [1], the “total protein half-life in vivo” value is 3.78 h.

The values above are taken from the supplement of paper PMC11246515.
